The text below walks through data of publication PMC6499816, “Molecular determinants regulating selective binding of autophagy adapters and receptors to ATG8 proteins” (Nature Communications, 2019).

In the test the target is -L1 (recombinant, BLI) (human), Q9H0R8. Put plainly: BLI. The following applies: modification not given.
Sequence of -L1 (recombinant, BLI) (human), Q9H0R8 (Q9H0R8 whole entry): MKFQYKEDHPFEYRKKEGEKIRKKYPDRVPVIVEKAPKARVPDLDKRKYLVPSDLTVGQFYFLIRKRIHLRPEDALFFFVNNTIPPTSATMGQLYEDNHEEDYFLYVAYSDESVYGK

Regarding NISQKSDEEDFDKVEDLPLKLTIY [PCM1 V1956D LIR peptide], the Kd is 5.2 µM.
For NISQKSDEEDFVKIEDLPLKLTIY [PCM1 V1958I LIR peptide] the value was 1.1 µM.
